# Assay results: patent US20210054016
# Tests used:
# [1] = molecular target: Vaccinia capping enzyme (VCE) (Vaccinia virus) (UniProt P04298+P04318); conditions: pseudouridine in place of U; 5' triphosphate; 37 C, 100 nM enzyme; larger than U counterpart
# [2] = system: T1, H3C2 RNA capping enzyme (Faustovirus D5b) (Faustovirus D5b); conditions: pseudouridine in place of U; 5' triphosphate; 37 C, 100 nM enzyme; larger than U counterpart
# T1 sequence: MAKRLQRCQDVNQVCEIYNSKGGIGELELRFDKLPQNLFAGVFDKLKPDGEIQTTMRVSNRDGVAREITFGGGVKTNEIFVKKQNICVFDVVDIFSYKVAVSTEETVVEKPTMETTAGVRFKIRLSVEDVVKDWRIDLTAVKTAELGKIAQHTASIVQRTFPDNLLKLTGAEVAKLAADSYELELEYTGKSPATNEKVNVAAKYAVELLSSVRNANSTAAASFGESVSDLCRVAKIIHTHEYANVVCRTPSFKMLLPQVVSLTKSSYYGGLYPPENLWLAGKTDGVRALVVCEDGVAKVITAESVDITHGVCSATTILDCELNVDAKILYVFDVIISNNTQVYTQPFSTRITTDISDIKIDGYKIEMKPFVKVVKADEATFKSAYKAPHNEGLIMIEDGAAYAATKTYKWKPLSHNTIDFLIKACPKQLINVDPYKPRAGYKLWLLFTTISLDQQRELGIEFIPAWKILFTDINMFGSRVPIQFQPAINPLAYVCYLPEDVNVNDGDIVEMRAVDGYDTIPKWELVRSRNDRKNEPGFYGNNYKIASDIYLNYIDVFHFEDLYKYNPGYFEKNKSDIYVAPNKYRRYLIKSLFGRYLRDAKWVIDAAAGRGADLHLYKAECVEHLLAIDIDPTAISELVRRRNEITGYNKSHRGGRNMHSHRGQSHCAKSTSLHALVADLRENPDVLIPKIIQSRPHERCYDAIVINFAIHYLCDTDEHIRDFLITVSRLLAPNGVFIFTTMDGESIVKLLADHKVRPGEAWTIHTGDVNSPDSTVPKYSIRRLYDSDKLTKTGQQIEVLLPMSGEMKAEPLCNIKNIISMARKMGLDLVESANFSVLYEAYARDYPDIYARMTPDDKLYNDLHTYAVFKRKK
substance,measurement,setting,value
cluc/A120 transcript with pseudouridine,activity,[1],68.4 % capped
same,activity,[2],100 % capped
